Experimental data published in US20250262210A1 (TRUSTEES OF COLUMBIA UNIVERSITY IN THE CITY OF NEW YORK, published 2025).

Legend:
Assay in all cases: IP/MS, LZTR1 wild type-FLAG, U87
MOCOS = target: T1, MOCOS (human, UniProt Q96EN8 1-888)
T1 sequence (looked up): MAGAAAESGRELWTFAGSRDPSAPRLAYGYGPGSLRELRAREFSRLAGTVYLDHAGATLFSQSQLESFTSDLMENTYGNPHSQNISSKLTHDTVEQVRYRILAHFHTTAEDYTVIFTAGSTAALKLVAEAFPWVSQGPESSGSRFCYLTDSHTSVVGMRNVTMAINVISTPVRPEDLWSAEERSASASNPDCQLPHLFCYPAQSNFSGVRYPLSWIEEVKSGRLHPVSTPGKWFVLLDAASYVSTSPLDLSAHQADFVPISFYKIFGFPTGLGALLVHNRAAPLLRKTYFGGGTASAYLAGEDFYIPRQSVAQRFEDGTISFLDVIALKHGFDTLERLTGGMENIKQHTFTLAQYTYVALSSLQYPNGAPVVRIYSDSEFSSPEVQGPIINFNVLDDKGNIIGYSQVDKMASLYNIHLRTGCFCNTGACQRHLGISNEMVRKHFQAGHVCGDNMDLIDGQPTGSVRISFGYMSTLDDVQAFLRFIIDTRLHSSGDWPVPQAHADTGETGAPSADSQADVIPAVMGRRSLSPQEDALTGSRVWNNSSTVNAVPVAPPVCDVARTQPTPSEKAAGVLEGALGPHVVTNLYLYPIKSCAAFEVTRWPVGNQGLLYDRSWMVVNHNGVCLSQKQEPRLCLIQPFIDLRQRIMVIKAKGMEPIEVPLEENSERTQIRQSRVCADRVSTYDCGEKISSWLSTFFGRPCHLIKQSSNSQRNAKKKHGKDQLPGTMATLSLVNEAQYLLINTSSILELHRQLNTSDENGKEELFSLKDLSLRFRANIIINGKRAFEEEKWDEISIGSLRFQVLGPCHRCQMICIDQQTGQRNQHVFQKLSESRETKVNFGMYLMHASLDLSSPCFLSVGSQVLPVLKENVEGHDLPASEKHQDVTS
Procedure, shortened: (§1)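 Gel slices were reduced with 5 mM DTT, alkylated with 11 mM IAA and digested overnight at 37° C. with trypsin. Peptides were analysed on an Orbitrap Fusion Tribrid by LC-MS/MS.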

PEAK1 = PEAK1 (human, UniProt Q9H792 1-1746)
Procedure, shortened: as §1

SLC4A2 = target: T2, SLC4A2 (human, UniProt P04920 1-1241, limits assumed)
T2 sequence (looked up): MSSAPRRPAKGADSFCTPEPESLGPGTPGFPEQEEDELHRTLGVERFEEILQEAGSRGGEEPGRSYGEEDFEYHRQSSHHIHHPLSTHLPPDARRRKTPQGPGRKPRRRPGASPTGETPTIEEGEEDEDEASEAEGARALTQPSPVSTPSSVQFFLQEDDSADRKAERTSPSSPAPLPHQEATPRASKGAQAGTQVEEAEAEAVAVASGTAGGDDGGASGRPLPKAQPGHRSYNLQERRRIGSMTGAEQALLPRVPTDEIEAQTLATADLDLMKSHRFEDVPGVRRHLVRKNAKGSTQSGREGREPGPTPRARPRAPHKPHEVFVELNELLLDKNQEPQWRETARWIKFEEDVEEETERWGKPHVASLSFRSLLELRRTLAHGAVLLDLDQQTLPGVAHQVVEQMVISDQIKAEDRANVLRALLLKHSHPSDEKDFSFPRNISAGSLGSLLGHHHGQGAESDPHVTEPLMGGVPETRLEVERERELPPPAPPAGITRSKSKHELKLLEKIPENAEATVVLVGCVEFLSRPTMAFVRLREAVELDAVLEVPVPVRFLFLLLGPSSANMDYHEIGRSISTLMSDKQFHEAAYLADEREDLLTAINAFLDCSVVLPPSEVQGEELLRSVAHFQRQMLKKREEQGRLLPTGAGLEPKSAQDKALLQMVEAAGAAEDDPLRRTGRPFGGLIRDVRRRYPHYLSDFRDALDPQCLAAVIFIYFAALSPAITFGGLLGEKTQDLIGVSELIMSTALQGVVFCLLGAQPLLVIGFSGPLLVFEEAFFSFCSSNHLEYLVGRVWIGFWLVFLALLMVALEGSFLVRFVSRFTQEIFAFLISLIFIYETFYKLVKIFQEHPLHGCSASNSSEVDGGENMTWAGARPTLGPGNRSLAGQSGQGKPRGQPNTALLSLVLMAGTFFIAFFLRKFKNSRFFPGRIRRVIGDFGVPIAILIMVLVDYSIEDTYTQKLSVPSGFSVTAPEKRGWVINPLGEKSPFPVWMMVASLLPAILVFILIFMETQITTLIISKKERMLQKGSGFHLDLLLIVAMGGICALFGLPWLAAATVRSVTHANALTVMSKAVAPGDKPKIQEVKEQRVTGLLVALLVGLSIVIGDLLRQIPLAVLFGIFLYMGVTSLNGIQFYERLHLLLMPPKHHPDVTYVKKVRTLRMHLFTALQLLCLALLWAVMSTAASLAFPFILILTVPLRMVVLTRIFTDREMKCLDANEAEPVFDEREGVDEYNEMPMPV
Procedure, shortened: as §1

VPS13A = VPS13A (human, UniProt Q96RL7 1-3174, limits assumed)
Procedure, shortened: as §1

TUBGCP2 = TUBGCP2 (human, UniProt Q9BSJ2 1-902, limits assumed)
Procedure, shortened: as §1

Measured: binding result

PEAK1, sequence (Q9H792 whole entry): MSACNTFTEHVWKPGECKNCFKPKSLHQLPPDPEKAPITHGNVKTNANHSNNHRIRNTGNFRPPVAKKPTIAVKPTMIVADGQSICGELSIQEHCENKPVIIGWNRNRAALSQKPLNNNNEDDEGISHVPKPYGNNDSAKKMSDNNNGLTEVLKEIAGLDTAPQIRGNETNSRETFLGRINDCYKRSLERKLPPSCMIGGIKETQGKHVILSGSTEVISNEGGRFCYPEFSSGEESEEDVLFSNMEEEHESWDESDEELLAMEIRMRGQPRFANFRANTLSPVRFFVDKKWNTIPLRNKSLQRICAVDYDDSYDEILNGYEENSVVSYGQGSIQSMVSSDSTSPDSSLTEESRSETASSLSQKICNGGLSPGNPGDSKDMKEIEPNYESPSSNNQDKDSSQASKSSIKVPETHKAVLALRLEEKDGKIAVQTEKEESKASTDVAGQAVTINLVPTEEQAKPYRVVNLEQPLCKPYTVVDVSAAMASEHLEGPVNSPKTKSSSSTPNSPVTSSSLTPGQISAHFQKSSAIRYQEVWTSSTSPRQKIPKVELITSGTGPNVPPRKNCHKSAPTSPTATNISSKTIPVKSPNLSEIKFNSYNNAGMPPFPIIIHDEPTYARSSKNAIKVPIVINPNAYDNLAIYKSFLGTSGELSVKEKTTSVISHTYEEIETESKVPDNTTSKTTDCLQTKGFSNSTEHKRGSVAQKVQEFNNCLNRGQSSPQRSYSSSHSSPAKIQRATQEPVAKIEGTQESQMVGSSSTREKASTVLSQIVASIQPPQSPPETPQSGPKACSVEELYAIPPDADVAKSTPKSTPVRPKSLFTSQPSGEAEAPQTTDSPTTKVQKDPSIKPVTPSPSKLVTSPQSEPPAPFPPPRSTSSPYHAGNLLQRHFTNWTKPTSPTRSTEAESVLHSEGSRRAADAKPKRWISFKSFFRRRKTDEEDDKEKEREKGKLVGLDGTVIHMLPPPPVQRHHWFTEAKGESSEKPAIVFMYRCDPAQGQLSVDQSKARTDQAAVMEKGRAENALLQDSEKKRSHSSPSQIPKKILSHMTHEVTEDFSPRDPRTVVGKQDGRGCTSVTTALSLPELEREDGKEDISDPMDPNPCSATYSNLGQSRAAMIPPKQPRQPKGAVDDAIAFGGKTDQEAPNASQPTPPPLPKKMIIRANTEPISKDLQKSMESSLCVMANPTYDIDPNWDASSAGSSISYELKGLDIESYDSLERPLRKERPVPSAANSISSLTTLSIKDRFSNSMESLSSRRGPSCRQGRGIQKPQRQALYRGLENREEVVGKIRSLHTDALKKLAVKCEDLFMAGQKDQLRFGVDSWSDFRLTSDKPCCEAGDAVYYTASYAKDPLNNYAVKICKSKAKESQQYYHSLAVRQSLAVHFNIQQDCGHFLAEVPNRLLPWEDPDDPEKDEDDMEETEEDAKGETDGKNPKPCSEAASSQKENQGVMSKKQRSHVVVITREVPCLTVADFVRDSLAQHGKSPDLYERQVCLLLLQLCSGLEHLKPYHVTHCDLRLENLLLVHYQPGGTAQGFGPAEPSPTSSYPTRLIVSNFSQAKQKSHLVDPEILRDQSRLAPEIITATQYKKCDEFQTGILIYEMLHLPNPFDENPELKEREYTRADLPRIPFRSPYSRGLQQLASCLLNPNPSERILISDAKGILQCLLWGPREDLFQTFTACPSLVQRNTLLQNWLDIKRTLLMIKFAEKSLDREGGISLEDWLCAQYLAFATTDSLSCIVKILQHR
VPS13A, sequence (Q96RL7 whole entry): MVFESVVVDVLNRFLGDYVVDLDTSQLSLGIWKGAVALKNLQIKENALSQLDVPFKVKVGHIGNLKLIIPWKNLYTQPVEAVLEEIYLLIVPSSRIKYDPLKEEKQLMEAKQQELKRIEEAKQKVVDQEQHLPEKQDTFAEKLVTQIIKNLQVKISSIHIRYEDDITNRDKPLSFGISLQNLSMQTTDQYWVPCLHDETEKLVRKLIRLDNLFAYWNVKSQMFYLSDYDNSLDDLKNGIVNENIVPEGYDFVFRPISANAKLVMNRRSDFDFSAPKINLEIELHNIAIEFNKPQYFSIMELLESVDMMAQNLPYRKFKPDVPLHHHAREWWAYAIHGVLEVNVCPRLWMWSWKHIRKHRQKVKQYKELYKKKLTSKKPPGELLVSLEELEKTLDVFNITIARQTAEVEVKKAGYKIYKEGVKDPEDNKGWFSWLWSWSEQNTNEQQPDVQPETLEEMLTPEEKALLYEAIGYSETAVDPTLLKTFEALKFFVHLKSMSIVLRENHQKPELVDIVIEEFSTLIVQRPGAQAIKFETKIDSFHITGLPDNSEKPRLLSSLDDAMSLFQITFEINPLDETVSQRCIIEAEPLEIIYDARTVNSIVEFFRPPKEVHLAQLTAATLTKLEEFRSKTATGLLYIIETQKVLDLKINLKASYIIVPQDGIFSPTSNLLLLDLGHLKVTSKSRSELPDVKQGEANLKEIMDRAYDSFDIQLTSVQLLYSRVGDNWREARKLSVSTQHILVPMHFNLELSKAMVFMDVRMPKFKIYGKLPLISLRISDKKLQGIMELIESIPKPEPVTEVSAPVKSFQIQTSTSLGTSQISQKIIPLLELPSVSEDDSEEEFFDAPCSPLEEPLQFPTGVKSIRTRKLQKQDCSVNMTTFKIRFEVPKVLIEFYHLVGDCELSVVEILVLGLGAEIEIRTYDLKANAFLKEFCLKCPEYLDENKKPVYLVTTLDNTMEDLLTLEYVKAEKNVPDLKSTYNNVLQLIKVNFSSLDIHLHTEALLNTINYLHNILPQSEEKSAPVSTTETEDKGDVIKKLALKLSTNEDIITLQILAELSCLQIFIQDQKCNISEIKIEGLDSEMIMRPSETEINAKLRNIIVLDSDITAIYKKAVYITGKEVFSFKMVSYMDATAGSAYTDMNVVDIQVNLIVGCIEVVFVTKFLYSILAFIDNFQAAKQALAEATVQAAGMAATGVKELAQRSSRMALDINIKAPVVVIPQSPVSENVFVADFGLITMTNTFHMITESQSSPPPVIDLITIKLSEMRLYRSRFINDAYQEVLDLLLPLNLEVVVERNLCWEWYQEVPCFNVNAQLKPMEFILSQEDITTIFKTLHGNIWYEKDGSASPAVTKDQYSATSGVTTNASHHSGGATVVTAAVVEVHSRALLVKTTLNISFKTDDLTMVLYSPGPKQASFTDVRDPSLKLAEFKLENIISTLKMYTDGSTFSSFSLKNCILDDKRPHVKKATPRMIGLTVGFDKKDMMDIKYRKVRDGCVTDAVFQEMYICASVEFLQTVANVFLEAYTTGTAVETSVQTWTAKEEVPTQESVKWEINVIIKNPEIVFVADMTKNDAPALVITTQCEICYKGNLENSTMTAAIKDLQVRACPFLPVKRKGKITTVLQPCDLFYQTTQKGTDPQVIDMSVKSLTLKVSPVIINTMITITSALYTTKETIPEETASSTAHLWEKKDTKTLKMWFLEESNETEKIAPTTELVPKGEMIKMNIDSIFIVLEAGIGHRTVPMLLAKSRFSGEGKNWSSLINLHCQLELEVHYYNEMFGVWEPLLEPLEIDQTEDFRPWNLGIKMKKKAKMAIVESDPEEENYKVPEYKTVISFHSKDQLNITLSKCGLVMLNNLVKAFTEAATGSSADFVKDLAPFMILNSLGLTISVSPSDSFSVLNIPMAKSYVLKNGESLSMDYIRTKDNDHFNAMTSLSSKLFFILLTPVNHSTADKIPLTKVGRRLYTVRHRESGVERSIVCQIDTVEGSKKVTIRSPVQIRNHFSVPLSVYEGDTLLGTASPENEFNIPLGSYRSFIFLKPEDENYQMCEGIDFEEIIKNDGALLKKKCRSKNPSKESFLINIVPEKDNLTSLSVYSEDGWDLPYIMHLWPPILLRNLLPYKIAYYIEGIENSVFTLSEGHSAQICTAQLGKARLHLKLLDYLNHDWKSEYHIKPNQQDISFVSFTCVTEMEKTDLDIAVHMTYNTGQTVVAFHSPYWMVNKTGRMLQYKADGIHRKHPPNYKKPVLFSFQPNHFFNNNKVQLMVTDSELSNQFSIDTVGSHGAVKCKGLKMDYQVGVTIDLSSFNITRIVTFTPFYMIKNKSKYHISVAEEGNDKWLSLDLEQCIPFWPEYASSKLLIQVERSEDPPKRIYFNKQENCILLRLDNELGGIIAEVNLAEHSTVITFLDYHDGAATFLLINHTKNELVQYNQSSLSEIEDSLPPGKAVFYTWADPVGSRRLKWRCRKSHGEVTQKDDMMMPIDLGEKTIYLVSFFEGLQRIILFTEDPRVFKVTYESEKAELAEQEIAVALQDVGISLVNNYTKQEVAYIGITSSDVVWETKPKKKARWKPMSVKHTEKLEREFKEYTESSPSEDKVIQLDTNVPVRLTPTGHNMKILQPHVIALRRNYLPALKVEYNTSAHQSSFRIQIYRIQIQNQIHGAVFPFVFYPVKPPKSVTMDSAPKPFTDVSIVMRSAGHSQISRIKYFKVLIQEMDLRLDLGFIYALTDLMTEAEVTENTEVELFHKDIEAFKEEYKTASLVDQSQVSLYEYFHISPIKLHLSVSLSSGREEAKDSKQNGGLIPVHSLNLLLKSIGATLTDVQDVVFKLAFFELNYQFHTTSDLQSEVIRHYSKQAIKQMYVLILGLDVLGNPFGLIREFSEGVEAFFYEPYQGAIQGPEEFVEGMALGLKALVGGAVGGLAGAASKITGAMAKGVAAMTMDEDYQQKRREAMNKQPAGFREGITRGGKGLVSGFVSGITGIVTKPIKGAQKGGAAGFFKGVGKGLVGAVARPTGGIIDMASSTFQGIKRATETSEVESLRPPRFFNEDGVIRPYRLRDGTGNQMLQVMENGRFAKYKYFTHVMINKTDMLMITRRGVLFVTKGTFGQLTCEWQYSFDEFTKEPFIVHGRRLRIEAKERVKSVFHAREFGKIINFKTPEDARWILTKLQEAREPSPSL

B1: LZTR1-FLAG (other, human, UniProt Q8N653 1-840, looked up)
chain: MAGPGSTGGQIGAAALAGGARSKVAPSVDFDHSCSDSVEYLTLNFGPFETVHRWRRLPPCDEFVGARRSKHTVVAYKDAIYVFGGDNGKTMLNDLLRFDVKDCSWCRAFTTGTPPAPRYHHSAVVYGSSMFVFGGYTGDIYSNSNLKNKNDLFEYKFATGQWTEWKIEGRLPVARSAHGATVYSDKLWIFAGYDGNARLNDMWTIGLQDRELTCWEEVAQSGEIPPSCCNFPVAVCRDKMFVFSGQSGAKITNNLFQFEFKDKTWTRIPTEHLLRGSPPPPQRRYGHTMVAFDRHLYVFGGAADNTLPNELHCYDVDFQTWEVVQPSSDSEVGGAEVPERACASEEVPTLTYEERVGFKKSRDVFGLDFGTTSAKQPTQPASELPSGRLFHAAAVISDAMYIFGGTVDNNIRSGEMYRFQFSCYPKCTLHEDYGRLWESRQFCDVEFVLGEKEECVQGHVAIVTARSRWLRRKITQARERLAQKLEQEAAPVPREAPGVAAGGARPPLLHVAIREAEARPFEVLMQFLYTDKIKYPRKGHVEDVLLIMDVYKLALSFQLCRLEQLCRQYIEASVDLQNVLVVCESAARLQLSQLKEHCLNFVVKESHFNQVIMMKEFERLSSPLIVEIVRRKQQPPPRTPLDQPVDIGTSLIQDMKAYLEGAGAEFCDITLLLDGHPRPAHKAILAARSSYFEAMFRSFMPEDGQVNISIGEMVPSRQAFESMLRYIYYGEVNMPPEDSLYLFAAPYYYGFYNNRLQAYCKQNLEMNVTVQNVLQILEAADKTQALDMKRHCLHIIVHQFTKVSKLPTLRSLSQQLLLDIIDSLASHISDKQCAELGADI
notes: Expressed in HEK 293T, HeLa or U87 cells; used as cell lysate; also called LZTR1 wild type-FLAG; LZTR1 WT; not shown: FLAG tag at the C-terminus
binds: all assays above
